Laboratory results as given in patent publication US6485936 (HSP RESEARCH INSTITUTE, dated 2002).

T1: GST-HSF2N96C328 (human, UniProt Q03933 96-328)
T1 construct: Expressed in E. coli and immobilized on glutathione-Sepharose; also called HSF2N96C328 (GST fusion); not shown: glutathione S-transferase (GST) encoded by the pGEX-5X-1 vector (Pharmacia)
T1 sequence (looked up): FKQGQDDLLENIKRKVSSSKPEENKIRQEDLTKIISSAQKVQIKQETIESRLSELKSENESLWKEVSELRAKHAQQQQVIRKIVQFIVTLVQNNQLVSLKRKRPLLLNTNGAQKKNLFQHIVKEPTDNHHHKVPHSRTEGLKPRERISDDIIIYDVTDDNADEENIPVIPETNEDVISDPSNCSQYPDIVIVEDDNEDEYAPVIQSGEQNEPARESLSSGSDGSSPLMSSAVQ


Legend:
[1] = molecular target: T1, GST-HSF2N96C328; assay: GST pull-down, 35S-labeled in vitro translated deletion mutant
[2] = molecular target: T1, GST-HSF2N96C328; assay: GST pull-down with GST-HSF2N96C328; 35S-labeled in vitro translated protein

Row | Binder | binding result [1] | proportion bound (% of the level of input) [2]
1 | BP-C115 (deletion mutant of HSF2BP), in vitro translated, 35S-methionine-labeled (other, 35S-methionine label) MGEAGAAEEACRHMGTKEEFVKVRKKDLERLTTEVMQIRDFLPRILNGEVLESFQKLKIVEKNLERKEQELEQLKMDCEHFKARLETVQADNIREKKEKLALRQQLNEAKQQLLQ | – | 5.7 % of the level of input
2 | BP-C73 (deletion mutant of HSF2BP), in vitro translated, 35S-methionine-labeled (other, 35S-methionine label) MGEAGAAEEACRHMGTKEEFVKVRKKDLERLTTEVMQIRDFLPRILNGEVLESFQKLKIVEKNLERKEQELEQ | no binding | –

Further lines, results first:

Row | binding result [1] | proportion bound (% of the level of input) [2] | Binder
3 | no binding | – | BP-N115 (deletion mutant of HSF2BP), in vitro translated, 35S-methionine-labeled (other, 35S-methionine label) QQAEYCTEMGAAACTLLWGVSSSEEVVKAILGGDKALKFFSITGQTMESFVKSLDGDVQELDSDESQFVFALAGIVTNVAAIACGREFLVNSSRVLLDTILQLLGDLKPGQCTKLKVLMLMSLYNVSINLKGLKYISESPGFIPLLWWLLSDPDAEVCLHVLRLVQSVVLEPEVFSKSASEFRSSLPLQRILAMSKSRNPRLQTAAQELLEDLRTLEHNV
4 | – | 22.3 % of the level of input | BP-C150 (deletion mutant of HSF2BP), in vitro translated, 35S-methionine-labeled (other, 35S-methionine label, Vector pcDNA 3.1 His; tag residues are not described) MGEAGAAEEACRHMGTKEEFVKVRKKDLERLTTEVMQIRDFLPRILNGEVLESFQKLKIVEKNLERKEQELEQLKMDCEHFKARLETVQADNIREKKEKLALRQQLNEAKQQLLQQAEYCTEMGAAACTLLWGVSSSEEVVKAILGGDKA
5 | – | 12.9 % of the level of input | HSF2 binding protein (HSF2BP), in vitro translated, 35S-methionine-labeled (other, 35S-methionine label, In vitro translated (TNT kit) from HSF2BP cDNA in pcDNA 3.1 His A, B or C; also called human HSF2BP; intact HSF2BP) MGEAGAAEEACRHMGTKEEFVKVRKKDLERLTTEVMQIRDFLPRILNGEVLESFQKLKIVEKNLERKEQELEQLKMDCEHFKARLETVQADNIREKKEKLALRQQLNEAKQQLLQQAEYCTEMGAAACTLLWGVSSSEEVVKAILGGDKALKFFSITGQTMESFVKSLDGDVQELDSDESQFVFALAGIVTNVAAIACGREFLVNSSRVLLDTILQLLGDLKPGQCTKLKVLMLMSLYNVSINLKGLKYISESPGFIPLLWWLLSDPDAEVCLHVLRLVQSVVLEPEVFSKSASEFRSSLPLQRILAMSKSRNPRLQTAAQELLEDLRTLEHNV
